Measured values: US12281340B2, “Method of producing N-acyl-amino group-containing compound” (AJINOMOTO CO., INC., priority 2018, dated 2025)
Blank lines part the entries; values can stand above or below the molecule they belong to.

Experiments:
Assay type in all cases: biochemical
Design in all cases: key: +: Detected; −: Not detected
[1] = Synthesis of N-caprinoyl-amino acid derivative, N-caprinoyl-D-amino acid and N-caprinoyl-peptide using purified acylamino acid synthetase, UPLC-MS detection; conditions: +ATP
Summary of the method: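 Purified enzyme (50 μg/mL) was incubated with 5 mM sodium caprate, 5 mM amino acid derivative, D-amino acid or peptide, 10 mM ATP, 10 mM MgCl2 and 1 mM DTT in 50 mM Tris-HCl, pH 8.0, for 24 h at 25 °C. After acidic methanol stop, UPLC-MS looked for the mass of the N-caprinoyl product.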

[2] = Synthesis of N-acylamino acids from various fatty acids using purified acylamino acid synthetase, UPLC-MS detection
Description: 0.1 mL of a reaction solution containing 50 mM Tris-HCl, 5 mM amino acid, 5 mM sodium fatty acid (3 mM of sodium palmitate or sodium stearate), 10 mM ATP, 10 mM MgCl2, 1 mM DTT, 200 μg/mL of the purified enzyme, pH 8.0 was shaken at 25° C. for 24 hours. When sodium palmitate or sodium stearate was used, methanol at a final concentration of 10% (v/v) was contained in the reaction solution. As the amino acid, L-Asp was used in AtGH3-6, OsGH3-8, AtGH3-5, AtGH3-12, L-Ile was used in AtJAR1, L-Ala was used in AtGH3-10, SsGH3, L-Glu was used in AtGH3-17, Gly was used in CfHP, L-Lys was used in PsIAAL, and L-Cys was used in PaHP. After completion of the reaction, 0.4 mL of the reaction stop solution (1% (v/v) phosphoric acid, 75% (v/v) methanol) was added, and the mixture was filtrated through the filter followed by being subjected to the UPLC-MS analysis to detect a signal of a molecular weight corresponding to the N-acylamino acid.
The condition for the UPLC-MS analysis is as follows.
Apparatus: ACQUITY UPLC (Waters)
Column: ACQUITY UPLC BEH C18 1.7 μm 2.1×100 mm Column (Waters), mobile phase A: 0.1% formic acid; mobile phase B: acetonitrile
• Flow rate: 0.6 mL/minute • Injection amount: 2 μL • Column temperature: 40° C. • Ionization method: ESI-negative
As a result of the UPLC-MS analysis, the signal of the molecular weight corresponding to the appropriate N-acylamino acid was confirmed in the reaction solution containing the enzyme in combination with sodium fatty acid shown in Table 7 below.

[3] = Synthesis of N-caprinoylamino acid using purified acylamino acid synthetase, UPLC-MS detection; conditions: +ATP
Summary of the method: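 Purified enzyme (50 μg) with 5 mM amino acid, 5 mM sodium caprate, 10 mM ATP, 10 mM MgCl2, 1 mM DTT in Tris-HCl pH 8.0, 24 h at 25° C; product detected by UPLC-MS (ESI-negative) as the N-caprinoyl amino acid mass signal.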

[4] = substrates Carnosine and sodium caprate
[5] = substrates D-Ala and sodium caprate
[6] = substrates D-Asp and sodium caprate
[7] = substrates D-Cys and sodium caprate
[8] = substrates D-Glu and sodium caprate
[9] = substrates D-Ile and sodium caprate
[10] = substrates D-Lys and sodium caprate
[11] = substrates L-Asp-L-Phe and sodium caprate
[12] = substrates L-Gly-L-Gly and sodium caprate
[13] = substrates Sarcosine and sodium caprate
[14] = substrates Taurine and sodium caprate
[15] = substrates GABA and sodium caprate
[16] = substrates Gly and sodium caprate
[17] = substrates L-Ala and sodium caprate
[18] = substrates L-Arg and sodium caprate
[19] = substrates L-Asn and sodium caprate
[20] = substrates L-Asp and sodium caprate
[21] = substrates L-Cys and sodium caprate
[22] = substrates L-Gln and sodium caprate
[23] = substrates L-Glu and sodium caprate
[24] = substrates L-His and sodium caprate
[25] = substrates L-Ile and sodium caprate
[26] = substrates L-Leu and sodium caprate
[27] = substrates L-Lys and sodium caprate
[28] = substrates L-Met and sodium caprate
[29] = substrates L-Phe and sodium caprate
[30] = substrates L-Pro and sodium caprate
[31] = substrates L-Ser and sodium caprate
[32] = substrates L-Thr and sodium caprate
[33] = substrates L-Trp and sodium caprate
[34] = substrates L-Tyr and sodium caprate
[35] = substrates L-Val and sodium caprate
[36] = substrates β-Ala and sodium caprate

signal of molecular weight corresponding to N-caprinoyl compound [1, 4]: − | signal of molecular weight corresponding to N-caprinoyl compound [1, 5]: + | signal of molecular weight corresponding to N-caprinoyl compound [1, 6]: + | signal of molecular weight corresponding to N-caprinoyl compound [1, 7]: − | signal of molecular weight corresponding to N-caprinoyl compound [1, 8]: + | signal of molecular weight corresponding to N-caprinoyl compound [1, 9]: − | signal of molecular weight corresponding to N-caprinoyl compound [1, 10]: − | signal of molecular weight corresponding to N-caprinoyl compound [1, 11]: − | signal of molecular weight corresponding to N-caprinoyl compound [1, 12]: + | signal of molecular weight corresponding to N-caprinoyl compound [1, 13]: − | signal of molecular weight corresponding to N-caprinoyl compound [1, 14]: + | signal of molecular weight corresponding to N-acylamino acid ([2]; substrates L-Ala and Capric acid): + | signal of molecular weight corresponding to N-acylamino acid ([2]; substrates L-Ala and Caproic acid): + | signal of molecular weight corresponding to N-acylamino acid ([2]; substrates L-Ala and Caprylic acid): + | signal of molecular weight corresponding to N-acylamino acid ([2]; substrates L-Ala and Lauric acid): + | signal of molecular weight corresponding to N-acylamino acid ([2]; substrates L-Ala and Linoleic acid): − | signal of molecular weight corresponding to N-acylamino acid ([2]; substrates L-Ala and Palmitic acid): − | signal of molecular weight corresponding to N-acylamino acid ([2]; substrates L-Ala and myristic acid): + | signal of molecular weight corresponding to N-caprinoyl amino acid [3, 15]: − | signal of molecular weight corresponding to N-caprinoyl amino acid [3, 16]: + | signal of molecular weight corresponding to N-caprinoyl amino acid [3, 17]: + | signal of molecular weight corresponding to N-caprinoyl amino acid [3, 18]: − | signal of molecular weight corresponding to N-caprinoyl amino acid [3, 19]: − | signal of molecular weight corresponding to N-caprinoyl amino acid [3, 20]: + | signal of molecular weight corresponding to N-caprinoyl amino acid [3, 21]: − | signal of molecular weight corresponding to N-caprinoyl amino acid [3, 22]: − | signal of molecular weight corresponding to N-caprinoyl amino acid [3, 23]: − | signal of molecular weight corresponding to N-caprinoyl amino acid [3, 24]: − | signal of molecular weight corresponding to N-caprinoyl amino acid [3, 25]: + | signal of molecular weight corresponding to N-caprinoyl amino acid [3, 26]: + | signal of molecular weight corresponding to N-caprinoyl amino acid [3, 27]: − | signal of molecular weight corresponding to N-caprinoyl amino acid [3, 28]: + | signal of molecular weight corresponding to N-caprinoyl amino acid [3, 29]: − | signal of molecular weight corresponding to N-caprinoyl amino acid [3, 30]: − | signal of molecular weight corresponding to N-caprinoyl amino acid [3, 31]: + | signal of molecular weight corresponding to N-caprinoyl amino acid [3, 32]: − | signal of molecular weight corresponding to N-caprinoyl amino acid [3, 33]: − | signal of molecular weight corresponding to N-caprinoyl amino acid [3, 34]: − | signal of molecular weight corresponding to N-caprinoyl amino acid [3, 35]: + | signal of molecular weight corresponding to N-caprinoyl amino acid [3, 36]: +
B1: SsGH3: GH3 auxin-responsive promoter superfamily from Synechococcus sp. PCC 7335, His-tagged (protein)
chain: MVIHTIPKEILDSVASTGDVFAYHLLRSTGDIGETVLQYLLCLAAKVNLTGIEQDTYNADKVQEQLLNDILRSENKTLYGKKYNFDSLNVDSFRSSLPLTSYENYRESIDNVVQTGNYSQLVSEPITLFQESSGTTGKVKLIPRTNKFTLSAMRAFQAIEAVVQSHFQNPSSSSQRVLALVNTSPTKLTPTGIPRGTGTSGGLNDALQKFKLANYLIDIKYSSPSPVFLISNTEAAYYCHLLFGLLDSDINDISANFAATVLNAMKILEKAWTQLVEDIRQGKLYAGLDIDEATRRELEIRLRANPERARELQAYFEEGFEGILPRIWPSLSCIQCITTGSMQLYTDALRYYSGTVPFFSGSYGASEAWIGVNLDPEREPPAFVVTPHTAFFEFIPQDAIDQEQSATVCLTDLKPGESYEVVVTNMSGLYRYRVGDVVRCVGYHHKSPMIEFMYRRQTLLNLFGEKVSEDVIYSALSTTLREFGMAIQDIDYTCRHEFEGTPWRYVVYLEPADYEGCSSQHEMVQQRLDEVLCNLSDRYRQLREVGSIGSLKLKLVREGTFSGLKTRLLSQEHSDSQFKMPRLLTETALISFMESSL
modifications: His-tag; Synechococcus PCC 7335
notes: GH3 auxin-responsive promoter superfamily from Synechococcus sp; PCC 7335, His-tagged

signal of molecular weight corresponding to N-caprinoyl compound [1, 4]: − | signal of molecular weight corresponding to N-caprinoyl compound [1, 5]: − | signal of molecular weight corresponding to N-caprinoyl compound [1, 6]: + | signal of molecular weight corresponding to N-caprinoyl compound [1, 7]: − | signal of molecular weight corresponding to N-caprinoyl compound [1, 8]: + | signal of molecular weight corresponding to N-caprinoyl compound [1, 9]: + | signal of molecular weight corresponding to N-caprinoyl compound [1, 10]: − | signal of molecular weight corresponding to N-caprinoyl compound [1, 11]: − | signal of molecular weight corresponding to N-caprinoyl compound [1, 12]: + | signal of molecular weight corresponding to N-caprinoyl compound [1, 13]: − | signal of molecular weight corresponding to N-caprinoyl compound [1, 14]: + | signal of molecular weight corresponding to N-acylamino acid ([2]; substrates L-Cys and Capric acid): + | signal of molecular weight corresponding to N-acylamino acid ([2]; substrates L-Cys and Caproic acid): + | signal of molecular weight corresponding to N-acylamino acid ([2]; substrates L-Cys and Caprylic acid): + | signal of molecular weight corresponding to N-acylamino acid ([2]; substrates L-Cys and Lauric acid): + | signal of molecular weight corresponding to N-acylamino acid ([2]; substrates L-Cys and Linoleic acid): − | signal of molecular weight corresponding to N-acylamino acid ([2]; substrates L-Cys and Palmitic acid): − | signal of molecular weight corresponding to N-acylamino acid ([2]; substrates L-Cys and myristic acid): − | signal of molecular weight corresponding to N-acylamino acid ([2]; substrates L-Glu and Capric acid): + | signal of molecular weight corresponding to N-acylamino acid ([2]; substrates L-Glu and Caproic acid): + | signal of molecular weight corresponding to N-acylamino acid ([2]; substrates L-Glu and Caprylic acid): + | signal of molecular weight corresponding to N-acylamino acid ([2]; substrates L-Glu and Lauric acid): + | signal of molecular weight corresponding to N-acylamino acid ([2]; substrates L-Glu and Linoleic acid): − | signal of molecular weight corresponding to N-acylamino acid ([2]; substrates L-Glu and Palmitic acid): + | signal of molecular weight corresponding to N-acylamino acid ([2]; substrates L-Glu and myristic acid): + | signal of molecular weight corresponding to N-caprinoyl amino acid [3, 15]: + | signal of molecular weight corresponding to N-caprinoyl amino acid [3, 16]: + | signal of molecular weight corresponding to N-caprinoyl amino acid [3, 17]: + | signal of molecular weight corresponding to N-caprinoyl amino acid [3, 18]: − | signal of molecular weight corresponding to N-caprinoyl amino acid [3, 19]: + | signal of molecular weight corresponding to N-caprinoyl amino acid [3, 20]: + | signal of molecular weight corresponding to N-caprinoyl amino acid [3, 21]: + | signal of molecular weight corresponding to N-caprinoyl amino acid [3, 22]: + | signal of molecular weight corresponding to N-caprinoyl amino acid [3, 23]: + | signal of molecular weight corresponding to N-caprinoyl amino acid [3, 24]: − | signal of molecular weight corresponding to N-caprinoyl amino acid [3, 25]: + | signal of molecular weight corresponding to N-caprinoyl amino acid [3, 26]: + | signal of molecular weight corresponding to N-caprinoyl amino acid [3, 27]: − | signal of molecular weight corresponding to N-caprinoyl amino acid [3, 28]: + | signal of molecular weight corresponding to N-caprinoyl amino acid [3, 29]: + | signal of molecular weight corresponding to N-caprinoyl amino acid [3, 30]: − | signal of molecular weight corresponding to N-caprinoyl amino acid [3, 31]: + | signal of molecular weight corresponding to N-caprinoyl amino acid [3, 32]: + | signal of molecular weight corresponding to N-caprinoyl amino acid [3, 33]: + | signal of molecular weight corresponding to N-caprinoyl amino acid [3, 34]: + | signal of molecular weight corresponding to N-caprinoyl amino acid [3, 35]: + | signal of molecular weight corresponding to N-caprinoyl amino acid [3, 36]: +
B2: AtGH3-17: indole-3-acetic acid-amido synthetase GH3.17 from Arabidopsis thaliana, His-tagged (protein, listed as Arabidopsis thaliana)
chain: MIPSYDPNDTEAGLKLLEDLTTNAEAIQQQVLHQILSQNSGTQYLRAFLDGEADKNQQSFKNKVPVVNYDDVKPFIQRIADGESSDIVSAQPITELLTSSGTSAGKPKLMPSTAEELERKTFFYSMLVPIMNKYVDGLDEGKGMYLLFIKPEIKTPSGLMARPVLTSYYKSQHFRNRPFNKYNVYTSPDQTILCQDSKQSMYCQLLCGLVQRSHVLRVGAVFASAFLRAVKFLEDHYKELCADIRTGTVTSWITDSSCRDSVLSILNGPNQELADEIESECAEKSWEGILRRIWPKAKYVEVIVTGSMAQYIPTLEFYSGGLPLVSTMYASSECYFGINLNPLCDPADVSYTLLPNMAYFEFLPVDDKSHEEIHFATHSNTDDDDDALKEDLIVNLVNVEVGQYYEIVITTFTGLYRYRVGDILKVTGFHNKAPQFRFVQRRNVVLSIDTDKTSEEDLLNAVTQAKLNHLQHPSSLLLTEYTSYADTSSIPGHYVLFWELKPRHSNDPPKLDDKTMEDCCSEVEDCLDYVYRRCRNRDKSIGPLEIRVVSLGTFDSLMDFCVSQGSSLNQYKTPRCVKSGGALEILDSRVIGRFFSKRVPQWEPLGLDS
modifications: His-tag
notes: indole-3-acetic acid-amido synthetase GH3.17 from Arabidopsis thaliana, His-tagged
